Reference: PMC7293249
Positions count from the first letter of the chain named.

B1: type I anti-APC mAb TPP-2312 (BAY1316786) (antibody, V domains shown)
VH: EVQLLESGGGLVQPGGSLRLSCAASGFTFSSYWMSWVRQAPGKGLEWVSGVSWNGARTHYADSVKGRFTISRDNSKNTLYLQMNSLRAEDTAVYYCALTGRSGWMRFPNWFDPWGQGTLVTVSS
VL: QSVLTQPPSVSGAPGQRVTISCTGSSSNIGAAYDVHWYQQLPGTAPKLLIYGNNKRPSGVPDRFSGSKSGTSASLAITGLQAEDEADYYCQSYDSSLSGSVFGGGTKLTVL
B2: C25K23Fab (type I Fab, TTP-2781) (Fab, V domains shown)
VH: B1 VH with A56S, S123T
VL: B1 VL with V10A, A13T, T78S, Q81R, A82S

Legend:
[1] = target: human activated protein C (human) (UniProt P04070)
[2] = target: human activated protein C (human) (UniProt P04070); remark: listed apart in the source
[3] = target: human activated protein C (human) (UniProt P04070); remark: listed apart in the source
[4] = target: human activated protein C (human) (UniProt P04070); remark: listed apart in the source
[5] = target: human activated protein C (human) (UniProt P04070); assay: ELISA; hAPC or hPC coated directly on Maxisorp plates at 100 ng/well in PBS/Ca2+; antibodies titrated, 1 h at RT; detection with HRP anti-human Fc
[6] = target: human activated protein C (human) (UniProt P04070); assay: ELISA; APC-binding ELISA of the purified Fabs on human APC and Gla-domainless APC; format not told

Row | Binder | inhibition of APC amidolytic activity (Spectrozyme PCa), IC50 [1] [nM] | maximal inhibition of APC amidolytic activity (Spectrozyme PCa), mAb 0.5-500 nM [1] [%] | TM–TGA in normal human plasma, increase of thrombin generation, EC50 [2] [nM] | Protac-aPTT in normal human plasma, inhibition of APC anticoagulant activity, IC50 [3] [nM] | Protac-aPTT in normal human plasma, maximal inhibition of APC anticoagulant activity [3] [%] | Protac-aPTT in FVIII-antibody-treated normal human plasma, IC50 [4] [nM] | Protac-aPTT in hemophilia A plasma, inhibition of APC activity, IC50 [4] [nM] | Protac-aPTT in hemophilia A plasma, maximal inhibition of APC activity [4] [%] | EC50 [5] [nM] | EC50 [6] [nM]
1 | B1 | 4.8 | 98 | 38 | 7 | 93 | 5 | 5 | 87 | 0.4 | –
2 | B2 | – | – | – | – | – | – | – | – | – | 2 to 4
